Laboratory results as given in patent publication US20250043302A1, “MUTATED HYDROXYPHENYLPYRUVATE DIOXYGENASE POLYPEPTIDE, AND CODING GENE AND USE THEREOF” (BEIJING DABEINONG BIOTECHNOLOGY CO., LTD., priority 2021, published 2025).

How the values were obtained:
[1] = test system: Arabidopsis thaliana T1 plants; test: Isoxaflutole tolerance of transgenic Arabidopsis thaliana T1 plants (spray, bleached leaf area grade, damage score); assay type: in vivo; conditions: for Classification and statistics of the grade of pesticide damage Grade 0 / Classification and statistics of the grade of pesticide damage Grade 1 / Classification and statistics of the grade of pesticide damage Grade 2 / Classification and statistics of the grade of pesticide damage Grade 3: number of plants in grade;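 for Scores: Weighted damage index from 0 to 100 where higher means more damage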
In short: (§1)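 Read-out: per-plant damage grade 0–3 from proportion of bleached leaf area at 7 DAT (1 <50%, 2 >50%, 3 100%). Plants were T1 transformants, glufosinate-selected, plus wild-type CK, sprayed 18 days post-sowing. Rates: topramezone 25–200, isoxaflutole 35–280, mesotrione 52.5–420 g ai/ha.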

[2] = test system: Arabidopsis thaliana T1 plants; test: Mesotrione tolerance of transgenic Arabidopsis thaliana T1 plants (spray, bleached leaf area grade, damage score); assay type: in vivo; design: Scores: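 damage score 0-100 computed as Σ(N×S)/(T×M)×100 over grades 0-3 with higher meaning more damage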; conditions: for Classification and statistics of the grade of pesticide damage Grade 0 / Classification and statistics of the grade of pesticide damage Grade 1 / Classification and statistics of the grade of pesticide damage Grade 2 / Classification and statistics of the grade of pesticide damage Grade 3: number of plants in grade
In short: as §1

B1: AsHPPDm-F372A-F383Y-02: nucleotide sequence encoding Avena sativa HPPD with F372A+F383Y; vector DBN11796 (nucleic acid)
DNA: ATGCCACCTACTCCAGCTACAGCTACTGGTGCTGCTGCTGCTGCCGTTACTCCTGAGCACGCTGCCAGGTCATTCCCCAGGGTGGTTCGCGTGAACCCCAGATCTGATAGGTTCCCAGTTCTGAGCTTCCACCATGTTGAGCTGTGGTGCGCTGATGCTGCTTCTGCTGCTGGCAGGTTCTCTTTCGCTCTTGGTGCTCCACTCGCTGCTAGATCTGATCTGTCTACAGGAAATAGCGCTCATGCCTCACTCCTGCTTCGCTCAGGTGCTTTGGCCTTCCTCTTCACCGCTCCATATGCTCCCCCACCTCAGGAGGCTGCTACTGCTGCTGCTACAGCCTCCATTCCAAGCTTCTCAGCTGATGCCGCTAGAACCTTCGCTGCTGCTCATGGACTTGCCGTGAGGTCTGTTGGTGTTCGCGTGGCTGATGCTGCTGAGGCTTTCAGAGTTTCCGTTGCCGGCGGAGCTAGGCCAGCTTTCGCTCCTGCTGATTTGGGACATGGTTTCGGCCTGGCTGAGGTTGAGCTTTACGGTGACGTGGTTCTCCGCTTCGTGTCTTACCCAGATGAGACTGACCTGCCTTTCCTTCCCGGCTTCGAGAGAGTTTCCTCTCCTGGTGCCGTGGATTACGGCCTGACAAGGTTCGACCACGTGGTTGGAAACGTTCCCGAGATGGCTCCAGTGATCGATTACATGAAGGGCTTCCTTGGATTCCATGAGTTCGCCGAGTTCACTGCTGAGGACGTGGGAACCACTGAGTCCGGTTTGAACTCTGTGGTTCTCGCCAACAATTCTGAGGCTGTTTTGCTCCCTCTGAATGAGCCTGTGCATGGAACCAAGAGGAGAAGCCAGATTCAAACTTACCTGGAGTACCACGGTGGCCCTGGAGTTCAGCATATCGCCCTTGCTTCTAATGATGTGTTGCGCACACTCAGAGAGATGCGCGCCAGAACCCCCATGGGAGGTTTCGAGTTCATGGCCCCACCACAGGCTAAGTACTACGAGGGCGTTAGAAGGATTGCTGGAGACGTGTTGAGCGAGGAGCAGATCAAGGAGTGCCAAGAGCTGGGTGTTCTTGTGGATAGGGATGACCAGGGCGTTCTGCTTCAAATTGCCACTAAGCCAGTGGGCGACCGCCCTACATTCTATCTTGAGATGATTCAAAGAATCGGCTGCATGGAGAAGGATGAGGTTGGACAGGAGTACCAAAAGGGCGGATGCGGTGGCTTCGGAAAGGGTAACTTCAGCGAGTTGTTCAAGTCAATCGAGGACTACGAGAAGAGCCTCGAGGTGAAGCAGTCAGTGGTTGCCCAAAAGTCCTGA
modifications: AsHPPDm-F372A-F383Y-02 Nucleotide Sequence
notes: vector DBN11796
Resistance evaluation ([1]; isoxaflutole 140 g ai/ha): Moderately
Scores ([1]; isoxaflutole 140 g ai/ha): 33
Classification and statistics of the grade of pesticide damage Grade 0 ([1]; isoxaflutole 140 g ai/ha): 5
Classification and statistics of the grade of pesticide damage Grade 1 ([1]; isoxaflutole 140 g ai/ha): 6
Classification and statistics of the grade of pesticide damage Grade 2 ([1]; isoxaflutole 140 g ai/ha): 5
Classification and statistics of the grade of pesticide damage Grade 3 ([1]; isoxaflutole 140 g ai/ha): 0
Resistance evaluation ([1]; isoxaflutole 280 g ai/ha): Poorly
Scores ([1]; isoxaflutole 280 g ai/ha): 67
Classification and statistics of the grade of pesticide damage Grade 0 ([1]; isoxaflutole 280 g ai/ha): 0
Classification and statistics of the grade of pesticide damage Grade 1 ([1]; isoxaflutole 280 g ai/ha): 0
Classification and statistics of the grade of pesticide damage Grade 2 ([1]; isoxaflutole 280 g ai/ha): 16
Classification and statistics of the grade of pesticide damage Grade 3 ([1]; isoxaflutole 280 g ai/ha): 0
Resistance evaluation ([2]; mesotrione 210 g ai/ha): Moderately
Scores ([2]; mesotrione 210 g ai/ha): 33
Classification and statistics of the grade of pesticide damage Grade 0 ([2]; mesotrione 210 g ai/ha): 5
Classification and statistics of the grade of pesticide damage Grade 1 ([2]; mesotrione 210 g ai/ha): 6
Classification and statistics of the grade of pesticide damage Grade 2 ([2]; mesotrione 210 g ai/ha): 5
Classification and statistics of the grade of pesticide damage Grade 3 ([2]; mesotrione 210 g ai/ha): 0
Resistance evaluation ([2]; mesotrione 420 g ai/ha): Poorly resistant
Scores ([2]; mesotrione 420 g ai/ha): 52
Classification and statistics of the grade of pesticide damage Grade 0 ([2]; mesotrione 420 g ai/ha): 0
Classification and statistics of the grade of pesticide damage Grade 1 ([2]; mesotrione 420 g ai/ha): 8
Classification and statistics of the grade of pesticide damage Grade 2 ([2]; mesotrione 420 g ai/ha): 7
Classification and statistics of the grade of pesticide damage Grade 3 ([2]; mesotrione 420 g ai/ha): 1
